Measured values as given in patent US20170355757A1 (Regeneron, published 2017).
One block for each binder: values may come before it.

Experiments:
Cynomolgus monkey C5 = Cynomolgus monkey C5 (cynomolgus monkey, UniProt A0A2K5U1T1 19-1676); assay: cell-based or functional assay
monkey C5-mmh [1] = target: T1, monkey C5-mmh (monkey, UniProt P01031 19-1676 (human entry), limits assumed); assay: SPR (Biacore), mAb captured, dissociation of monkey C5 at pH7.4 vs pH6.0, 25°C
T1 construct: recombinant, with C-terminal myc-myc-hexahistidine tag
T1 chain: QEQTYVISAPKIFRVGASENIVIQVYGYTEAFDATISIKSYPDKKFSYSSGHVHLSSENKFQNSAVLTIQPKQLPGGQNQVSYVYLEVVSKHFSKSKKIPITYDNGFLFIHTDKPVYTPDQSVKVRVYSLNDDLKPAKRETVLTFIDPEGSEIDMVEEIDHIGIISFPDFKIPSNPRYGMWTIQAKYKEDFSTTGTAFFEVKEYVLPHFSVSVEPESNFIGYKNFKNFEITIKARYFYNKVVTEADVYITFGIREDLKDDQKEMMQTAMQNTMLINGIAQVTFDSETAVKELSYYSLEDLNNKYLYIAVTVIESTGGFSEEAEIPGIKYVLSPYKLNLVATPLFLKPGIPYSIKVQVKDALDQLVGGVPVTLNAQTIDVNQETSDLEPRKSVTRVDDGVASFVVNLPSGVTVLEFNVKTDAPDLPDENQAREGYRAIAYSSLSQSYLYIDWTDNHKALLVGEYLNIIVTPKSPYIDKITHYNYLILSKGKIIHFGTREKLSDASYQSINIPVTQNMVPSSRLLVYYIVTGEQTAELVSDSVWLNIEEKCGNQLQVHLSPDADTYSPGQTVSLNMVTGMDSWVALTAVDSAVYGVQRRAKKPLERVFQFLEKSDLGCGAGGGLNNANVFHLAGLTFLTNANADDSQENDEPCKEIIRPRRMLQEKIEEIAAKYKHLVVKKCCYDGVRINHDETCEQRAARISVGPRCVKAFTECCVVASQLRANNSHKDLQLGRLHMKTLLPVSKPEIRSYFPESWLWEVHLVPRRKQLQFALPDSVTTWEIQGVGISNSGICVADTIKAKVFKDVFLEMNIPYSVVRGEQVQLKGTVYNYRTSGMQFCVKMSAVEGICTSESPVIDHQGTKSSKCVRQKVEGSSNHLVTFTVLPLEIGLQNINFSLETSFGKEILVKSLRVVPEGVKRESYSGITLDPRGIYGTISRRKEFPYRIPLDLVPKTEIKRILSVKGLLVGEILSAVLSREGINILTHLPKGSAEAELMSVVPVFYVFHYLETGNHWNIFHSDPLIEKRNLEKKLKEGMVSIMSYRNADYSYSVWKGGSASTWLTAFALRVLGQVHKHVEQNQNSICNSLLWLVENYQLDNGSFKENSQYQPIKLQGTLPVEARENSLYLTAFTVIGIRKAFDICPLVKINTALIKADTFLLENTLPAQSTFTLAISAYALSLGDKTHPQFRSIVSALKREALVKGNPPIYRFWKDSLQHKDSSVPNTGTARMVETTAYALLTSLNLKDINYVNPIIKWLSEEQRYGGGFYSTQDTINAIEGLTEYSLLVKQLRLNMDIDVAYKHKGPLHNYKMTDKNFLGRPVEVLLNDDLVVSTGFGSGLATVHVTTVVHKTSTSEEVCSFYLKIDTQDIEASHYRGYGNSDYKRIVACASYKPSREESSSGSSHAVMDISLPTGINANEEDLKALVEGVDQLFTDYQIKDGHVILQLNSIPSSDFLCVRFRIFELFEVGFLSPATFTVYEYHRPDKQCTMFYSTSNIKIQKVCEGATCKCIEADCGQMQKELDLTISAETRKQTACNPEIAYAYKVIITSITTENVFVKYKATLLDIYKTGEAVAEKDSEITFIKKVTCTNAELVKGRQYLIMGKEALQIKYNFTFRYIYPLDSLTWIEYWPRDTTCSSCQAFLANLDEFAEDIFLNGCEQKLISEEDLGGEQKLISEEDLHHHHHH

human C5 [2] = target: T2, human C5 (human, UniProt P01031 19-1676); assay: cell-based or functional assay
human C5 R885C-mmh = human C5 R885C-mmh (human, UniProt P01031 19-1676); assay: cell-based or functional assay
human C5 [3] = target: T2, human C5; assay: cell-based or functional assay; remark: listed apart in the source
human C5 R885H-mmh = human C5 R885H-mmh (human, UniProt P01031 19-1676); assay: cell-based or functional assay
African green monkey C5 [4] = target: T3, African green monkey C5 (African green monkey); assay: cell-based or functional assay
African green monkey C5 [5] = target: T3, African green monkey C5; assay: cell-based or functional assay; remark: listed apart in the source
monkey C5-mmh [6] = target: T1, monkey C5-mmh; assay: SPR (Biacore), mAb captured, dissociation of monkey C5 at pH7.4 vs pH6.0, 37°C
human C5 [7] = target: T2, human C5; assay: SPR (Biacore), mAb captured, dissociation of human C5 at pH7.4 vs pH6.0, 37°C
Method in brief: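 Anti-C5 mAbs (human IgG4 Fc) captured on an amine-coupled mouse anti-human Fc surface; recombinant C5 dissociation followed by Biacore T200 in PBS-T (0.01M phosphate, 0.15M NaCl, 0.05% Tween-20) at pH7.4 or pH6.0. Dissociative half-life (t½) calculated from kd.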

t½ Ratio pH7.4/pH6.0 (monkey C5-mmh [1]): ≤ 1.7 | IC50, inhibition of CDC of Daudi cells, C5 depleted human serum and 6.6 nM C5 Variant R885C (human C5 R885C-mmh): 0.43 nM | IC50, inhibition of CDC of Daudi cells, 1.66% human serum (human C5 [3]): 2 nM | IC50, inhibition of CDC of Daudi cells, C5 depleted human serum and 6.6 nM C5 Variant R885H (human C5 R885H-mmh): 0.48 nM | IC50, inhibition of CDC of Daudi cells, 1.66% African Green monkey serum (African green monkey C5 [4]): 3.7 nM | t½ Ratio pH7.4/pH6.0 (monkey C5-mmh [6]): 4.7 | t½ Ratio pH7.4/pH6.0 (human C5 [7]): ≤ 0.2
B1: H4H12170P (antibody, human IgG4, V domains shown)
VH: QVQLVESGGGVVQPGRSLRLSCAASGFTFSGYGMHWVRQAPGKGLEWVALIWLDGSNDYYADSVKGRFTISRDNSKNTLYLQMNRLRAEDTAVYYCARDGPVAAIPDYWGQGTLVTVSS
VL: DIQMTQSPSTLSASVGDRVTITCRASQSISRWLAWYQLKPGKAPKLLIYKASSLESGVPSRFSGSGSGTDFTLTISSLQPDDFATYYCQQYNTYSYTFGQGTKLEIK
notes: H4H: human IgG4 Fc with S108P hinge mutation
Cyno AP % Max Inhibition, hemolysis assay, 5% serum (Cynomolgus monkey C5): 99.2% | Cyno CP % Max Inhibition, hemolysis assay, 5% serum (Cynomolgus monkey C5): 99% | Cyno Serum AP IC50, hemolysis assay, 5% serum (Cynomolgus monkey C5): 7 nM | Cyno Serum CP IC50, hemolysis assay, 5% serum (Cynomolgus monkey C5): 8.2 nM | Human AP % Max Inhibition, hemolysis assay, NHS (human C5 [2]): 81.1% | Human AP IC50, hemolysis assay, NHS (human C5 [2]): 18 nM | Human CP % Max Inhibition, hemolysis assay, NHS (human C5 [2]): 98.2% | Human CP IC50, hemolysis assay, NHS (human C5 [2]): 2.39 nM | AGM AP % Max Inhibition, hemolysis assay, 5% serum (African green monkey C5 [5]): 90.9% | AGM CP % Max Inhibition, hemolysis assay, 5% serum (African green monkey C5 [5]): 94.9% | AGM Serum AP IC50, hemolysis assay, 5% serum (African green monkey C5 [5]): 26.9 nM | AGM Serum CP IC50, hemolysis assay, 5% serum (African green monkey C5 [5]): 25.4 nM

t½ Ratio pH7.4/pH6.0 (monkey C5-mmh [1]): 2.1 | IC50, inhibition of CDC of Daudi cells, C5 depleted human serum and 6.6 nM C5 Variant R885C (human C5 R885C-mmh): 0.65 nM | IC50, inhibition of CDC of Daudi cells, 1.66% human serum (human C5 [3]): 1.9 nM | IC50, inhibition of CDC of Daudi cells, C5 depleted human serum and 6.6 nM C5 Variant R885H (human C5 R885H-mmh): 1.6 nM | IC50, inhibition of CDC of Daudi cells, 1.66% African Green monkey serum (African green monkey C5 [4]): 3.3 nM | t½ Ratio pH7.4/pH6.0 (monkey C5-mmh [6]): 4.7 | t½ Ratio pH7.4/pH6.0 (human C5 [7]): 3.7
B2: H4H12171P (antibody, human IgG4, V domains shown)
VH: EVQLVESGGGVVRPGGSLRLSCAASGFTFDEYGMTWVRQVPGKGLEWVSGITWNGGFTDYTDSVKGRFTSSRDNAKNSLYLQMNSLRAEDTALYYCARDGYSSSWGAYDIWGQGTMVTVSS
VL: DIQMTQSPSSLSASVGDRVTITCRASQSISTYLNWYQQKPGKAPKLLIYAASSLQSGVPLRFSGSGSGTDFTLTISSLQPEDFASYFCQQSYSTPYTFGQGTKLEIK
notes: as for B1
Cyno AP % Max Inhibition, hemolysis assay, 5% serum (Cynomolgus monkey C5): 98.8% | Cyno CP % Max Inhibition, hemolysis assay, 5% serum (Cynomolgus monkey C5): 92.9% | Cyno Serum AP IC50, hemolysis assay, 5% serum (Cynomolgus monkey C5): 7.2 nM | Cyno Serum CP IC50, hemolysis assay, 5% serum (Cynomolgus monkey C5): 8.7 nM | Human AP % Max Inhibition, hemolysis assay, NHS (human C5 [2]): 42% | Human AP IC50, hemolysis assay, NHS (human C5 [2]): 15.5 nM | Human CP % Max Inhibition, hemolysis assay, NHS (human C5 [2]): 94.9% | Human CP IC50, hemolysis assay, NHS (human C5 [2]): 2.33 nM | AGM AP % Max Inhibition, hemolysis assay, 5% serum (African green monkey C5 [5]): 69.7% | AGM CP % Max Inhibition, hemolysis assay, 5% serum (African green monkey C5 [5]): 17.8% | AGM Serum AP IC50, hemolysis assay, 5% serum (African green monkey C5 [5]): 23.3 nM

t½ Ratio pH7.4/pH6.0 (monkey C5-mmh [1]): 3.6 | IC50, inhibition of CDC of Daudi cells, C5 depleted human serum and 6.6 nM C5 Variant R885C (human C5 R885C-mmh): > 20 nM | IC50, inhibition of CDC of Daudi cells, 1.66% human serum (human C5 [3]): 2.2 nM | IC50, inhibition of CDC of Daudi cells, C5 depleted human serum and 6.6 nM C5 Variant R885H (human C5 R885H-mmh): 4.2 nM | IC50, inhibition of CDC of Daudi cells, 1.66% African Green monkey serum (African green monkey C5 [4]): 5.2 nM | t½ Ratio pH7.4/pH6.0 (monkey C5-mmh [6]): 0.4 | t½ Ratio pH7.4/pH6.0 (human C5 [7]): 0.9
B3: H4H12175P (antibody, human IgG4, V domains shown)
VH: EVQLVESGGGVVQPGGSLRLSCAASGFTFNDYAMHWVRQAPGKGLEWVSLISGDGGNTYYADSVKGRLTISRDNSKNSLYLQMNSLRTEDTALYYCAKDKGWNFGYFDLWGRGTLVTVSS
VL: DIQMTQSPSSLSTSVGDRVTITCRASQNIDTYLNWYQQKPGKAPKLLIYDASSLQSGVPSRFSGSGSGTDFTLTITSLQPEDFATYYCQQNDNILHPLTFGGGTKVEIK
notes: as for B1
Cyno AP % Max Inhibition, hemolysis assay, 5% serum (Cynomolgus monkey C5): 98.1% | Cyno CP % Max Inhibition, hemolysis assay, 5% serum (Cynomolgus monkey C5): 96.7% | Cyno Serum AP IC50, hemolysis assay, 5% serum (Cynomolgus monkey C5): 8.05 nM | Cyno Serum CP IC50, hemolysis assay, 5% serum (Cynomolgus monkey C5): 10.9 nM | Human AP % Max Inhibition, hemolysis assay, NHS (human C5 [2]): 80.2% | Human AP IC50, hemolysis assay, NHS (human C5 [2]): 20 nM | Human CP % Max Inhibition, hemolysis assay, NHS (human C5 [2]): 98% | Human CP IC50, hemolysis assay, NHS (human C5 [2]): 2.36 nM | AGM AP % Max Inhibition, hemolysis assay, 5% serum (African green monkey C5 [5]): 17.4% | AGM CP % Max Inhibition, hemolysis assay, 5% serum (African green monkey C5 [5]): 84.5% | AGM Serum AP IC50, hemolysis assay, 5% serum (African green monkey C5 [5]): 98.5 nM | AGM Serum CP IC50, hemolysis assay, 5% serum (African green monkey C5 [5]): 118 nM
